Target: wild-type SARS-CoV 3CL protease (mature enzyme), as used for analytical ultracentrifugation (SARS-CoV)
Assay: AUC

With “wild-type SARS-CoV 3CL protease (mature enzyme), as used for analytical ultracentrifugation” as the substance, how does the Kd read?
The Kd was 0.35 nM.

From publication PMC8062786
